From article PMC11003968 (Scientific Reports, 2024) come the findings set out here.

For the assay, the target named is IsdB Y165A, site-directed mutant of Staphylococcus aureus IsdB (Staphylococcus aureus, UniProt Q2FZF0 41-613, Y165A). Nature of the assay: ELISA. Conditions: both partners purified. Background: An ELISA detects its analyte on a solid surface through an enzyme-linked reagent.

B1: Human hemoglobin A (oxyhemoglobin) (complex)
chain 1: not shown
chain 2: not shown
B1 returned a Kd of 80 ± 11 µM.

A word on the Kd: it is a measure of binding affinity in units of concentration.
